Read-outs that look alike come from different tables or passages of the source. Starred links: 1 amine or outer side, 2 acyl side, 3 side chain; linkers in the order of their positions; H or OH if unused. Non-standard residues stand in square brackets, D forms with d. No end group written: not given here. Pyn = 1-pyrenylalanine, O=C([C@H](Cc1ccc2ccc3cccc4ccc1c2c34)N[*:1])[*:2]; Phe(4-Cl) = N[C@@H](Cc1ccc(Cl)cc1)C(=O)O; Lys(Me2) = CN(C)CCCC[C@H](N)C(=O)O; Cha = N[C@@H](CC1CCCCC1)C(=O)O
Legend:
[1] = biological target: T1, APJ (orphan G protein-coupled receptor protein); test: cell-based or functional assay
T1 chain: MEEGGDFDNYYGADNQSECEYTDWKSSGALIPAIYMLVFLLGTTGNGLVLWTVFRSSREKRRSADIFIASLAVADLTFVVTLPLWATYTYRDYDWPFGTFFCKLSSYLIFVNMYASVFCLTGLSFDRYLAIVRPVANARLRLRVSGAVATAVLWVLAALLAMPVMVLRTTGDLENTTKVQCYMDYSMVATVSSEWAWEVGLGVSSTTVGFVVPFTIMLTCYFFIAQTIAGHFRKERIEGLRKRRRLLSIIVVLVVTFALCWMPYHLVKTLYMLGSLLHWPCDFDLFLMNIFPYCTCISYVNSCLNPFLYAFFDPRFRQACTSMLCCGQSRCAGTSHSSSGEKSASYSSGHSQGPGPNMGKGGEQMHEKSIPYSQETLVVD

[2] = biological target: T1, APJ (orphan G protein-coupled receptor …); test: radioligand competition, 125I-labelled compound of Ref. Ex. 1 (100 pM), CHO-A10 membrane fraction
[3] = biological target: T1, APJ (orphan G protein-coupled receptor …); test: cell-based or functional assay
[4] = biological target: T1, APJ (orphan G protein-coupled receptor …); test: radioligand competition, compound of Ref. Ex. 2 as labelled ligand, CHO-A10 membrane fraction
[5] = biological target: T1, APJ (orphan G protein-coupled receptor …); test: as above
[6] = biological target: T1, APJ (orphan G protein-coupled receptor …); test: as above
[7] = biological target: T1, APJ (orphan G protein-coupled receptor …); test: radioligand competition, 125I-labelled compound of Ref. Ex. 1 (100 pM), CHO-A10 membrane fraction
Experimental: This product was mixed with an equal volume of an assay buffer (50 mM Tris-HCl/pH 7.5, 5 mM EDTA, 0.5 mM PMSF, 20 μg/ml leupeptin, 0.1 μg/ml pepstatin A, 4 μg/ml E-64 (Peptide Research Laboratory, Co.), 0.1% bovine serum albumin) and stored at −30° C. before use.
CHO-A10 cells were cultured, recovered with PBS containing 5 mM EDTA from a culture vessel, and suspended in the above-mentioned assay buffer not containing bovine serum albumin. The cells were homogenized 3 times at 12,000 rpm for 15 seconds by a Polytron homogenizer (manufactured by Kinematica Inc.) and then centrifuged (1000×g, 4° C., 10 minutes), and the supernatant was recovered. The precipitates were subjected again to the same procedure as above, and the respective supernatants were combined and centrifuged at 100,000×g, 4° C. for 1 hour, to recover precipitates (membrane fraction). The membrane fraction was suspended again in a small amount of the buffer, homogenized with a Teflon homogenizer and stored at −80° C. before use.
Binding assay was carried out under the following conditions. […] containing 0.25 μg of the membrane fraction, the ¹²⁵I-labeled compound at a final concentration of 100 pM, a test sample and an assay buffer were put onto each well of a 96-well polypropylene plate, and incubated at room temperature for 1.5 hours. Measurement of non-specific binding was carried out using a well containing 1 μM unlabeled compound in place of the test sample. After the incubation was finished, a cell harvester (Packard) adapted to 96 wells and a filter unit (GF/C, Packard) were used for separation thereby capturing the membrane fraction on the filter. After the filter was sufficiently dried, Microcinti 0 (Packard) was added thereto, and using Top Count (Packard), the amount of the labeled material captured together with the membrane fraction on the filter was measured.

[8] = biological target: T1, APJ (orphan G protein-coupled receptor …); test: cell-based or functional assay

In the case of RRQRPRLSARGP [Arg-Arg-Gln-Arg-Pro-Arg-Leu-Ser-Ala-Arg-Gly-Pro], the “EC50, inhibition of forskolin-stimulated cAMP production (CHO-A10 clone 6 cells)” value (“EC50, inhibition” below) [1] is reported as 260 pM.

With RPRLSA[Lys(Me2)]GPMPF (also called Compound in Ex. 64) [Arg-Pro-Arg-Leu-Ser-Ala-Lys(Me)2-Gly-Pro-Met-Pro-Phe] the IC50 [2] was 380 pM and the “EC50, inhibition” value [3] was 380 pM.

In the case of RPRLFARGPMPF (also called Compound in Ex. 31) [Arg-Pro-Arg-Leu-Phe-Ala-Arg-Gly-Pro-Met-Pro-Phe], the IC50 [4] is reported as 270 pM and the “EC50, inhibition” value [1] is reported as 140 pM.

For RRFRPRLSHKGPMPF (also called Compound in Ex. 33) [Arg-Arg-Phe-Arg-Pro-Arg-Leu-Ser-His-Lys-Gly-Pro-Met-Pro-Phe], the IC50 [4] was 370 pM and the “EC50, inhibition” value [1] was 1100 pM.

With RPRLSARGP[Cha][Pyn] (not fully specified; printed as Arg-Pro-Arg-Leu-Ser-Ala-Arg-Gly-Pro-Cha-Pyn, also called Compound in Ex. 60) [Arg-Pro-Arg-Leu-Ser-Ala-Arg-Gly-Pro-Cha-Pyn] the IC50 [2] was 1100 pM, the IC50 [5] was 800 pM and the “EC50, inhibition” value [3] was 1100 pM.

For RPRLSHKGPMP[Phe(4-Cl)] (also called Compound in Ex. 8) [Arg-Pro-Arg-Leu-Ser-His-Lys-Gly-Pro-Met-Pro-Phe(Cl)], the IC50 [6] was 39 pM, the IC50 [7] was 13000 pM and the “EC50, inhibition” value [8] was 340 pM.

With RPRLSARGP[Cha]P[Pyn] (not fully specified; printed as Arg-Pro-Arg-Leu-Ser-Ala-Arg-Gly-Pro-Cha-Pro-Pyn, also called Compound in Ex. 61) [Arg-Pro-Arg-Leu-Ser-Ala-Arg-Gly-Pro-Cha-Pro-Pyn] the IC50 [2] was 2200 pM, the IC50 [5] was 560 pM and the “EC50, inhibition” value [3] was 2200 pM.

For RPRLSARGPM (also called Compound in Ex. 27) [Arg-Pro-Arg-Leu-Ser-Ala-Arg-Gly-Pro-Met], the IC50 [4] was 110 pM.

RRQRPRLSARGPMPF (also called Compound in Ex. 17) [Arg-Arg-Gln-Arg-Pro-Arg-Leu-Ser-Ala-Arg-Gly-Pro-Met-Pro-Phe] showed an IC50 [4] of 36 pM.

With RPRLSARGPMPF (also called Compound in Ex. 24) [Arg-Pro-Arg-Leu-Ser-Ala-Arg-Gly-Pro-Met-Pro-Phe] the IC50 [7] was 27000 pM, the IC50 [4] was 57 pM and the “EC50, inhibition” value [1] was 250 pM.

RPRLFARGPMF (also called Compound in Ex. 47) [Arg-Pro-Arg-Leu-Phe-Ala-Arg-Gly-Pro-Met-Phe] was tested, and the IC50 [4] was 1800 pM and the “EC50, inhibition” value [1] was 360 pM.

B1: Arg-Arg-Gln-Arg-Pro-Arg-Leu-Ser-Ala-Arg-Gly-Gly-Cha (peptide)
peptide: RRQRPRLSARGG[Cha]
modifications: not fully specified; printed as Arg-Arg-Gln-Arg-Pro-Arg-Leu-Ser-Ala-Arg-Gly-Gly-Cha
notes: also called Compound in Ex. 62
With B1 the IC50 [2] was 230 pM, the IC50 [5] was 140 pM and the “EC50, inhibition” value [3] was 230 pM.

RRARPRLSHKGPMPF (also called Compound in Ex. 25) [Arg-Arg-Ala-Arg-Pro-Arg-Leu-Ser-His-Lys-Gly-Pro-Met-Pro-Phe] was tested, and the IC50 [7] was 34000 pM, the IC50 [4] was 67 pM and the “EC50, inhibition” value [1] was 250 pM.

RRRRPRLSHKGPMPF [Arg-Arg-Arg-Arg-Pro-Arg-Leu-Ser-His-Lys-Gly-Pro-Met-Pro-Phe] was tested, and the “EC50, inhibition” value [1] was 320 pM.

For RRKRPRLSHKGPMPF (also called Compound in Ex. 23) [Arg-Arg-Lys-Arg-Pro-Arg-Leu-Ser-His-Lys-Gly-Pro-Met-Pro-Phe], the IC50 [7] was 9200 pM, the IC50 [4] was 90 pM and the “EC50, inhibition” value [1] was 310 pM.

For RRQRPRLSARGPM (also called Compound in Ex. 18) [Arg-Arg-Gln-Arg-Pro-Arg-Leu-Ser-Ala-Arg-Gly-Pro-Met], the IC50 [7] was 2500 pM, the IC50 [4] was 23 pM and the “EC50, inhibition” value [1] was 180 pM.

With RP[Lys(Me2)]LSARGPMPF (also called Compound in Ex. 63) [Arg-Pro-Lys(Me)2-Leu-Ser-Ala-Arg-Gly-Pro-Met-Pro-Phe] the IC50 [2] was 330 pM, the IC50 [5] was 74 pM and the “EC50, inhibition” value [3] was 330 pM.
